# Experimental data as given in IntAct's records for PubMed 19937093.
# B1: TNF receptor-associated factor 4 (Homo sapiens), Q9BUZ4 (parent)
# chain: MPGFDYKFLEKPKRRLLCPLCGKPMREPVQVSTCGHRFCDTCLQEFLSEGVFKCPEDQLPLDYAKIYPDPELEVQVLGLPIRCIHSEEGCRWSGPLRHLQGHLNTCSFNVIPCPNRCPMKLSRRDLPAHLQHDCPKRRLKCEFCGCDFSGEAYESHEGMCPQESVYCENKCGARMMRRLLAQHATSECPKRTQPCTYCTKEFVFDTIQSHQYQCPRLPVACPNQCGVGTVAREDLPGHLKDSCNTALVLCPFKDSGCKHRCPKLAMARHVEESVKPHLAMMCALVSRQRQELQELRRELEELSVGSDGVLIWKIGSYGRRLQEAKAKPNLECFSPAFYTHKYGYKLQVSAFLNGNGSGEGTHLSLYIRVLPGAFDNLLEWPFARRVTFSLLDQSDPGLAKPQHVTETFHPDPNWKNFQKPGTWRGSLDESSLGFGYPKFISHQDIRKRNYVRDDAVFIRAAVELPRKILS
# Variants of: B1
# Details: with SMURF1, Q9HCE7-2
# SMURF1, Q9HCE7-2, sequence (Q9HCE7 other isoform, or with tags, fused parts or gaps): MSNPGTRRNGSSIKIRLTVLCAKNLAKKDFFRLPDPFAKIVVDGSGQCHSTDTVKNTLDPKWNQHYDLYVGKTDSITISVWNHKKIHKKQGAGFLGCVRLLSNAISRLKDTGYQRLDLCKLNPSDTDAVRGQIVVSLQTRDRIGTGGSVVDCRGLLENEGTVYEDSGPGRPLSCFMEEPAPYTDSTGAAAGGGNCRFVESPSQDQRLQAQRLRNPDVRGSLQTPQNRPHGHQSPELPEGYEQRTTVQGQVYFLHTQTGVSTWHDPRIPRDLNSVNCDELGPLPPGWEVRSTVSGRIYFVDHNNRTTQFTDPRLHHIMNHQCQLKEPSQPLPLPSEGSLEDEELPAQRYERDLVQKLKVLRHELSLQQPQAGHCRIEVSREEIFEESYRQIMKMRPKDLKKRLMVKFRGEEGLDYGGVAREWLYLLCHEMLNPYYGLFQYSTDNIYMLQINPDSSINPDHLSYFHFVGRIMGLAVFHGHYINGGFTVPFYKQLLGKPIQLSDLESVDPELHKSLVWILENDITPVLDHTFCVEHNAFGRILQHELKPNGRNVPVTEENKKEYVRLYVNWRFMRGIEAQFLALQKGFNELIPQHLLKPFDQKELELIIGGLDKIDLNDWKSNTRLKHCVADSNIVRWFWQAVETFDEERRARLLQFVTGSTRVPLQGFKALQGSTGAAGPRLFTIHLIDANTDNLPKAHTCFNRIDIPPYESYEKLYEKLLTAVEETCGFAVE
row,effect of a mutation on the interaction,Variant
1,disrupting interaction,P60A;L61A;D62A;Y63A;P194A;C195A;T196A;Y197A;P335A;F337A;Y338A
